Results published in the DeepSol protein solubility set.

test: soluble on expression in E. coli; label from the status in PepcDB or PDB records

| Sequence | soluble on expression in E. coli |
| --- | --- |
| MTQCYAEITGWGKCLPPATLSNHDLSTFLDTSDEWIQSRTGIEQRRISHVNTSDLATVAAQHAIACAGVSVEEIDLIIVATCSPDSLIPNIASRVQQNLGIPSAAAFDLNAACTGFLYGLETATRLMQASHYRHALVIGAERLSFYLDWTKRDTAVLFGDGAGAVVLSKTEQKVGLQDAQIGCDAQGRDILAVPKFGTAMDRFDADNGYWAFDFVGKEIFKRAVRGMGAAAQQVLARSGLSTEEIDVVIPHQANIRIIQTLCDLAGIAQDKAFVNIHRYGNTSAATVPIALCEALEQGKIKPHDDLLVAAFGAGLTWGAGHIRWGERITPLGKSDAQLPSCDHTALDLLSKAIEHCKRHQSE | not soluble |
| MTQLCSDVRVSPLPGTAKVGDTYILFEHHGPWSHDILDGGTFDKETSAALKAMGCGFYLIRRHGREGRIERPKKTAYLVFGSAGIAEKLMVDDVTDLLKLDVSGPGKNRQFGAEQEAQPIILVCTHAKRDACCAIKGRPMAQALTEEFPDSPVWECSHTKGHRFAPSMVLMPWGYTWGQLNKPAAFDMYRYAQRGQLFLPGNRGRGIWPMKGQIAEVAVAQQLAQEGETVTLGQLRVESIEEAQAHVADSHTARTWTVFLREEVVAGIVDSCHKPPKTGTAWVADRVKENGA | not soluble |
| MTQMNFTDRATRVAIIANGKYQSKRVASKLFAAFKHDPDFYLSKKDPDIVISIGGDGMLLSAFHMYEKQLDKVRFVGVHTGHLGFYTDYRDFEVDTLINNLKNDKGEQISYPILKVTITLEDGRVIRARALNESTIKRIEKTMVADVVINQVVFERFRGDGILVSTPTGSTAYNKSLGGAVLHPTIEALQLTEISSLNNRVYRTLGSSVIIPKKDAIEIVPKRVGVYTISIDNKTVHYKNVTKIEYSIDEKSINFVSTPSHTSFWERVNDAFIGEPEHLEHHHHHH | not soluble |
| MTQTNNPLHGITLETIITQLVEHYGWEELGARIKIRCFTEAPSIKSSLRFLRKTDWAREKVEYLYLKTNKLPLPAAKSIQAPAKEPSKKSAPKPNSKPTQTKVVTPTPAVEGQVNSHIWGKRDLEHHHHHH | soluble |
| MTRGLDYYEVMGLTRSANDIDIRRAYRRLALKYHPDINKDGAAGDEFLRICEAYEVLCDPKTKGFYDLYGEDALKDGISDGNGGLKGPMYRFNPEESPKAVFERFFGTANPYEALEALSNQFESMTSEEAPARGKNKVYPLELTLEEIFHGCLKKVAHKRKVLLFSGEYVEEERQLTVDVKPGLPTGTRFVFEGEGNKTPKKEPGPVVFVLKPKPHPRFVRRGSDLVHKVTLPLHHALIGTTLDIRTLDDRDLKVPISDIMRPGSSLTVPGEGMPLPATPSARGNLVIEIDLLFPTHLTETQKMLLRSAFF | soluble |
| MTSENSESQDIWLTDEQQDVWLDVWTMRIGLPARLDAQLKEAAGVSHFEYFTMAQISMAPEHRVRMSELAELSDMTLSHLSRVVTRLEKAGWVKRVPDPDDGRATVAVLTDSGWEKVKATAPGHVKEVRRLVFDDLTPEELKVMGTAMKKIVNRLDMSNRLPRV | not soluble |
| MTSKVGPVALKTFREKLGPELLEVFDKSYKSFTDVQVLSGTHLLNLSDVVVESPTGSGKTLAFVLPMMRMIQNAKLQPADIGALILSPSRELCSQIVSVIQPFAEKLNLTVETVTGGQKVDKNIKMFKNKNVNILVATPGRLFQIIQHEKTLIARKMRTLQLLVIDEADRFNEIQFEDHMREILSCIPKQRRTGLFSATQVKEEDDLMVFGLRNAKQVKVAQERNSAAPSTLKNYYVECRADEKTSVCLEFIRQRTDKKILIFFPSCNSVRYFYKIFERCLGKRPLFAVHGKCSNPHRASQIKAFSDSTNGVMISTDVMARGIDISDIDWVIQFDLPKHSSWFVHRAGRTARCGREGNALILIASEQLAYVNFLDNHEKVKLDEIKVPTNNSRKSEELRQKMIKIQVSDRAILEAGTRAFVSHVESYAKHDCHLICSLDDLNVVGLANSYALLRLPKMRELSQRKDLDMFDRSAIETSEIKYADVKLEANRETVMKEKHEKKVETLAAKDKKRREKEARKLKKMGGRFRNGGGTGRKAEEKKALKRKAEEEDDAQNDIRLLKRIKRGKLSKKEIKDVL | not soluble |
| MTSLQRKGPQTRILSTGEEEKLKRDQALVSAFKQQKLEKEAQKNWDLFYKRNSTNFFKDRHWTTREFEELRSCREYEGQKLTLLEAGCGVGNCLFPLLEEDSNIFAYACDFSPRAVDYVKQHPLYNAERCKVFQCDLTRDDLLDHIPPESVDAVTLIFVLSAVHPEKMHLVLLNVYKVLKPGRSVLFRDYGLNDHAMLRFKAGSKLGENFYVRQDGTRSYFFTDEFLAKLFVDAGYEEVVNEYVFRETVNKKEGLCVPRVFLQSKFRKPPKDPAPTTDSASLLRKEF | not soluble |
| MTSNKQLINERDHAESALADMYFAATGDEPEWSNWFGFSDAVDAVVDRIADLEAKQPSPVVPEGLVKAVRFYEQVKRENPPVETEAWKDAIDWVLKESCQAVNIDTNGD | soluble |
| MTSSFLYVLFTVSCLAALVSISEACFASGICGGGCPPPPPPMCSGGCGGGYSCGSYGCYRARARGSKTLSFKKPSEMNPDERFMKCCEDRNLPDSCLSKCSYRSYTKSALQSMYFKQDSCPMQAAADIQFCAAQGKDHTACCARNAVGTTLAGNKCFTFCDQRPGNVTQLDMSYLACYDRFENMKACFYQKASEASDPIVSFSNDRDNNREFAVDTETAEFRRPSQEHFRAPTSPQLPQNPLFAVQNLLARTFGQ | not soluble |
| MTSSIPFRSFNEKYECNDDDNFTYSSTEQKRIETMLFENYNSLVLEPFKTTSDEDLAELTIFRQKHASYLLRYLKNCPSSYATLDASRSWMCYWGVNALKILDAEIPNDVIENIIVFLKSCEHPEGGYGGGPGQLAHLAPTYAAVMCLVSLQKEEALRSINRVTLFNFLKKCKHESGGFYMHEGGEIDMRSAYCALATCEIVGLPMDEISNGVAEWIISCQSFEGGFGGEPYTEAHGGYTFCAVASLVLLNRFRLADMEGLLRWATRRQMRFEGGFQGRTNKLVDGCYSFWQGAIFPLLDGEMEREGRSLEKGLFEARMLEEYILVGCQSVHGGFKDKPDKPVDLYHTCYVLSGLSVAQKYSLARDGKILGGDVNMLAEINPVFNVTIASEQFAKEFFTSH | not soluble |
| MTSVDCTAYGPELRALAARLPRTPRADLYAFLDAAHTAAASLPGALATALDTFNAEGSEDGHLLLRGLPVEADADLPTTPSSTPAPEDRSLLTMEAMLGLVGRRLGLHTGYRELRSGTVYHDVYPSPGAHHLSSETSETLLEFHTEMAYHRLQPNYVMLACSRADHERTAATLVASVRKALPLLDERTRARLLDRRMPCCVDVAFRGGVDDPGAIAQVKPLYGDADDPFLGYDRELLAPEDPADKEAVAALSKALDEVTEAVYLEPGDLLIVDNFRTTHARTPFSPRWDGKDRWLHRVYIRTDRNGQLSGGERAGDVVAFTPRG | soluble |
| MTSYEEETDYRNVPRELLDNNIPMGRGMIKWAPFATLPEQFETIQQYIIDQNKITRPVLSDDQLAELNIRLHEALQYAQPVEVKFYNNGFVDSVRLTIYRIDAINYEIDGYVYNQQQRQKISIFDILDIVLLP | not soluble |
| MTTFTHINSQGEANMVDVSAKAETVREARAEAIVTMSKETLSMIVEGKHHKGDVFATARIAGIQAAKRTWELIPLCHPLLLSKVEVNLEPLLETNQVRIQSLCKLTGKTGVEMEALTAASVAALTIYDMCKAVQKDIVIEHVRLLEKSGGKSGHFIAEEK | soluble |
| MTTLEILRSGPLALVEDLGRAGLAHLGVGRSGAADRRSHTLANRLVANPDDWATVEVTFGGFSARVRGGDVDIAVTGADTDPTVNGIMVGTNSIHHVRDGQVISLGTPRAGLRTYLAVRGGVCVEPVLGSRSYDVMSAIGPSPLRAGDVLPVGEHTDDYPELDQAPVAAIEEHLVELRVVPGPRDDWLVDPDALVHTIWMASNRSDRVGMRLQGRPLQHRWPDRQLPGEGVTRGAIQVPPNGLPVILGPDHPITGSYPVVGVITDEDIDKVAQIRPGQYVRLHWARPRSRLPGQGVTQAW | soluble |
| MTTLTAQQIACVYAWLAQLFSRELDDEQLTQIASAQMAEWFSLLKSEPPLTAAVNELENRIATLTVRDDARLELAADFCGLFLMTDKQAALPYASAYKQDEQEIKRLLVEAGMETSGNFNEPADHLAIYLELLSHLHFSLGEGTVPARRIDSLRQKTLTALWQWLPEFVARCRQYDSFGFYAALSQLLLVLVECDHQNR | soluble |
| MTTPRWLTQDEQSLWRLFLAMERKVTRGIDEELQSSQGLTTPEFSVLVSLSERPGHEIRLRDLCESLQWDRSRTSHQITRMQRRGLVTKTKCSDDARGVFVELTPEGEKRLREAAPGHVDVVRKLIFDVMTEEEAAVLRGYFQKVIDVQCGASTGNPLDD | not soluble |
| MTTRILTGITPTGTPHLGNYAGAIRPAILASRRSDVDSFYFLADYHALIKCDDPARIQRSRLEIAATWLAGGLDVERATFYRQSDIPEIPELTWLLTCVSAKGLLNRAHAYKAAVDRNVEAGEDPDAGVTMGLYSYPVLMAADILMFNAHKIPVGRDQVQHVEMARDIGQRFNHLFGNGREFFVLPEAVIEENVATLPGLDGRKMSKSYDNTIPLFSPSRQLKDAIARIVTDSRAPGEPKDPDSSHLFLLYSAFASAEQVAAFRQELLEGLAWGEAKQRLFQLLDNELGEARERYQALIAKPDDIEDILLAGAAKARRIATPFIAELREAVGLRSLREPLKSAESGKKKAAKAARLVSFRDDDGSFRFRLLDAAGEQLLLSRAFADGKAAGAVSKRLLAGETADLRAEGNAFGLWLDGEAVAQSPAFADAAARDAAIERTREALAPQ | not soluble |
| MTTRLIVKNLPSTCTEQQLRKFFEKYGQISDASLKYTKEGKFRGFAFVGFLDEGSASNALAKSNQTFFNSKKLTVEECRPFGDANKPRAWSKYAKDSSAYKRTHGEKEEANPGKSDETEEPAPKKQKDDAKFDQFLEAKGVVVEKEVKLSKDKSAEAKKLMAELMDGIGGDTSLSLIFSGLPSSAKGKNIKEWLNPIRVKAMKIARNEDVAAAFVTFNRPPDVRRALQKDGQFLGGFKIGIEKIETPEPEHEVIEEHGASLESRDKEEETVREKILETGRLFLRNLPYATKEDDLQFLFKKYGEVSEVQVVIDKKTGACKGFAIVEFVFPEAAVAAYSALDGYVFKGRMMHILPGDEKRTKEGEEESEVVPDDPDNPLKAEAKKEKKKKSFKEEKDEQKKASAGKTAHSWNALFLGANAIADTLAQRLNVKKSDLLTSDQGESAGVRLALAETRLVRETRDFFLENGVKLDAFSKPAEKRSDTVMLAKNLPAGVESEELQRMFEKFGDCTKVLMPTEGGVSALVIMGNPVDAKKAFRALAYSRFRSQPLYLEWAPYDVMGATAPPAEDKTAEVADKPKLSKREMTYEEKRKERKNRQQGITEEEKDDGEVIEEEEKPKEVEAEDKKKSSKKQSEKEIESGSTLFVKNLAFDTTDGSLEFLFRKRYGDLVKSAQISKKLNPAEPTKPLSMGFGFVQFYTAFDAKTALKDMQGELLDGHSLELKISHRENADKGALKRKEVKQKEQGECTKLLVRNLPFEASVKEVETLFETFGAVKTIRIPKKPGQKQQHRGFGFVDFISADEAHRAFDSLVHSTHLYGRRLVLEWAKDDETVEELREKTAEKFAGNKKGVKKSKAQTEEFQQQLQIADDEKD | not soluble |
| MTTSCLQEKIDKLQNTVHALLHKSNYMAGVYVDDLARLNNEIHEQINDLYPCHGKTAEQEAALCLSLLMGYSVSMYANSEDEAKKKTVLRRSQMILKNQLPSPLKIQLHTIYDKLLS | not soluble |
